assay: soluble on expression in E. coli; label from the status in PepcDB or PDB records

Row | Sequence | soluble on expression in E. coli
1 | KKSPSAGSGSNGGNKKISQEEGEDNGGEDNKKLRGALSSAILSEKPNVKWEDVAGLEGAKEALKEAVILPVKFPHLFKGNRKPTSGILLYGPPGTGKSYLAKAVATEANSTFFSVSSSDLVSKWMGESEKLVKQLFAMARENKPSIIFIDQVDALTGTRGEGESEASRRIKTELLVQMNGVGNDSQGVLVLGATNIPWQLDSAIRRRFERRIYIPLPDLAARTTMFEINVGDTPSVLTKEDYRTLGAMTEGYSGSDIAVVVKDALMQPIRKIQSATHFKDVSTEDDETRKLTPSSPGDDGAIEMSWTDIEADELKEPDLTIKDFLKAIKSTRPTVNEDDLLKQEQFTRDFGQEGN | soluble
2 | MTTEAPVRVEDKLYQNRYLVDVGNAHIKVKPHTKPSPQLLALLKVCPAHCYELNSNGQVEVTPDGCVECGTCRVLAEGGGDIEWSYPRGGYGVLFKFG | not soluble
3 | MGSDKIHHHHHHDKDFGGLENIGWNEKPLQITTRILTTKSTNFIQEFKEGSMLGLQITSGTVDDLYNGISTYKNVSVKAYRVNGKIRWQQSPEVILDSNEATIYAYYPYQEDINFNARQIPVKLAPNALETDDYMYGTHAIGQKAVNSTSPLVLLSMNHALSLISFQLNLSKGKTGAFIISSVQVGNKPGGTTLVSEGTLDITTGDIIGSTARSTSASTVLSLTNPVTLINEKYCDPMRLMVIPPSGTIGTGDVETLFTINGETYKFDIPANTQWEKGKKYLYKLSFNGRSLQLRDVSITDWLPGNDEGLIGNIM | not soluble
4 | MKKRILSAVLVSGVTLSAAASVHAEDYDSQIAATNNAISNLASQQEAAQAQVATIQSQVSTLRTQKTELEAKNAELEKVSADLESEIQELSSKIVARQDSLAKQARSAQQNNTATSYINSILNSKSISEAITRITAISKVVTANNDLLTKQESDQKELAAKQEENQAAINTIAANKSELETTEAGLTTQQAELEAAQVTLAAELATAQNEKTSLVSAKSTAESVAASTAASVAQSQAIAESEATAQVVASSEAATSVASSEVAATSEAVAQPSETPVSETSTASEAAQEPASSETSEVQPESAAPAVSEAPASVAPVATSEAAPATSEAPASVAPVATSEAAPAVSEAPAPAAETHKVSAASTPNTYPVGQCTWGVKSLAPWAGNNWGNAKNWIASAQAAGHSVGTTPVAGAIAVWPNDGGGYGHVAYVTSASGANSIQVMESNYAGNMSISNYRGTFDPTSSAHGGSVFYIYPLEHHHHHH | soluble
5 | MNHVSHTGSYYAASANDKVQRSKLTEDITADICVVGSGFTGLSSALHLAEKGFKVVVVEGSRIGFGASGRNGGQLVNSYSRDMDFIERNYGKHVSTEMGQMAFEGSRIIKRLINDYDIKCDLRPGGVFAACNSKQLDEMAEKQKLWAKHGYHETELLSASDIQNHVGTERYVGGLLDKAGGHIHPLNLALGEAAAFEKLGGIIYEDSIVVDIVHGKKAVIKTDSGSVTADFVVVAGNAYLEGLLPKQQKQSMPCGTQIITTEVLPEAMQKQLLPTDVCVEDCNYLLDYFRLSGDGRLIYGGGTTYGAREPSKIESIIIPKMLKTFPQLKDVKIDYAWTGNFLLTLMRLPQFGRINDNVYYAQGYSGHGVTSTHLAGKVIADAITGQAERFDVFAGLPQYPFPGGRLFKTPYTAMGAWYYQMRDKLGILEHHHHHH | soluble
6 | MDAQLEWASSLVPKRQLQQQQQQQEQQQQQQQDFHKDQLMTVGMRIRQRVDQGYASRTPSTSDASLQPGVIRDYSSVIVPQFTRSPLPTANSLPPMLINQRTMSTEASSLEKWDVAEPAAEHETMVNGSKRRL | soluble
7 | MRHLLDFQGWSRTEVESLLDTARVMREVLERPIKKVPALQGFTVATVFFEPSTRTRISFELAARRMSADVVSFAAQTSSLQKGESYKDTLLTLEAMGVDAYVIRADSAGVPHQATRWVKGAVINGGDGRRAHPTQALLDAYTLLEALGTLEGKKVAIVGDILHSRVARSGAELLSLLGAQVFCAGPPSLLPQSLPGAHLTPRLEEALEEADAVMVLRLQKERMEAGLVHLEDYVARYQVTEKRLALAKPQAPLLHPGPMNRDVELEGTLADSARSLVNRQVQNGVAVRMAALYHLLVGKEKA | soluble
8 | MKAVDQAPKKKSHERKRKEKRVHTGNGTAKKHHKRKSRSKSKNKPKNGLSCCRKKKKKSKKSKSKVTKKQPKKKVIKPLAPVPNEQLGEVVLVKNVKLPETPQKPENDTPVKDGLKPPRTTNSVEKINLSKESFNLSNEKIASDNGTEEKMEKKNVDSPADIQDGLKGKSKQKSEEKVHQKAKDDAKRGDECNKFKISDEKLTKWKLVAQETLKDDANIAVNEFEKVSGYLPPHISKNHFVSNMDKNRFVDVICMDHSRVKLTDSSYIHANWVDLNSSKKAILTQLPLSHTASDFWQMIIDQKIKCVLLIMTDGEFNKFGGNSVFPQNQDFLKFEDRFIRVGEFKQVELGKGWNLKVLSVSNGTYKTFIHVHHYKNWPHGSIPSDVKQIWQVQSYLRKYTDGHPPVYMSMSGCGRAGTFALFETAHMSLHNEQPSLNMVKCLENVRNGRLHSVQNLSQFSVVYTLIAEHVLGNGIGKKDVEEQENSIDNILRQLTIQ | not soluble
9 | MADDLGLDLGKKKKSKKVIKIDGDDAPVETGVEAVEDGLGELNLGAKKKKKTPKTAGEEVVEEKVPTLEIGIGAQNLIDAKGAWPDYTYEEALTLVYQVMKDKNPDFAGDKKKFAIKLPEVARAGSKKTAFSNFLEICRLMKRQDKHVLQFLLAELGTTGSIDGSNCLIVKGRWQQKQFESVLRKYIKEYVMCHTCKSPETQLTKDTRLFFLQCTNCGSRCSVTAIKSGFKAVVGKRAAIRRAEEATAGK | not soluble
10 | MAHHHHHHMDIGELPDDQFPGAQYIPDLHGLGRERQALSCKVHEMKIPGQVSPYHVPEGEESSERETLYDENGLPIRTNSNDQEGDKKLWSWTDDGKLKLLCSQPIIPVSVVQGILRRDKIILIPQVEVTDFVVPKIYNQNIKHDVPKLDIKVECSNVEIPNVKYVEKEIIIPIITGYTHKFIPKWDVHEVPRPVVKYIGEQKIVEVEVPEIKYIDKIVEREVVVDTVEKRVPKIIEIPKYVDEVKYVWKPIEKIVYIQKLVPKFDVNLECPPPLIVPYPVQTVKQIPPVMVRKDVKFPDCDYTDFNSPYGSLPIPREYVDYYTSRQKAQKGIFSNCCESNCKNGEDHHGGETYYDVSPSSAMGVSEESLQNELNICNSSNPFVNTSADSILNKGGPRQALDAACM | not soluble
11 | MKSACSIITASIVLYKSKPDIIRDVITSFFSDTVTKKKLILIDNSPTDSLRVLQEERPEDIQYFFNNRNIGFGSAHNIGIREAARFNPSYHLILNPDVQFGPEVVPTLASYMDENPDIGLLMPQVYYPNGELQHLCKLFPRPWDVMLRRFVPYRSYRERNNERFELRNWSYDTIQDIPSLSGCFMFARMDILREVGGFDERFFMYAEDLDLCRRIGQVSRTVFFPKVSIMHTYAKGSYHDAKLLRHHIVSLIRYFNKWGWLFDAERRRVNRACLAVLRNQTTVKKD | not soluble
12 | MGSDKIHHHHHHMGCGVTVANASVYALPVRGNIVGALEAVTTHRDDTLLDIGRFYDLGYNQVTAANPGVNPWLPGQASKVVIPAEYILPPKPWTGIIVDIPARRIYYFPVNDRVVYTYPVGVFLPGWKEALTDTRIIAKFKMPAWNVPKNIHAWFEKKFHMDIPWYWPPGPENPMGELAMETGLSGIFIHGTYHPWGVGMRASQGCFQMFPENVAQLFPMVPVGTPVRIIDQPNLVGVRDGQVYLQSYKPMHAYHKKGIPELQRAVVTIKSFMERNRIEERIDWGMVRRIVTEHNTVALPIGVGAPSYATLSAALPATPYAYAPYGPSANGAAVPPPLPLASAADQEHLHVQVTFPDQKP | not soluble
13 | MTFFFDDRDQAVPYTATADDVAPTGQQIWQELQSGKWGEIAPFTVTPEMLEAAREARRQEIEAWRTEQEAKPFTFEWNGRIWNAGPDSLGRLSPVVMLAKSVTAQTHMAWSDADNQQVKLSMPELEELAESQKTALLTEAESVIRQPGRAVRLNRETDESGEARGRASVFPESVRSVVYAM | not soluble
14 | MAAGSGVVPPPLGAGLCTVKVEEDSPGNQESSGSGDWQNPETSRKQFRQLRYQEVAGPEEALSRLWELCRRWLRPELLSKEQIMELLVLEQFLTILPQELQAYVRDHSPESGEEAAALARTLQRALDRASPQVRLEWTLHGTREMA | soluble
15 | MGSDKIHHHHHHMIIAVSGKGGVGKTAFTTLLIKALSKKTNSILVVDADPDSNLPETLGVEVEKTVGDIREELKKLVERDEIPAGMTKLDYLRSKIFEILVETKYYDLLVMGRPEGSGCYCSVNNWLRQIIDNLAKDYEFVVIDTEAGLEHLSRRTTQNVDVMIVITDASKRGLGTAKRIKKLANELEVKFKDIYVVANKVKPEYEELIDNYAKELGLNLIGKLPYNKEIAEYDLKGIPLWNLPENNEVYKKVEEIAEKIINKKF | not soluble
16 | MFFSEARARSRTWEASPSEHRKWVEVFKACDEDHKGYLSREDFKTAVVMLFGYKPSKIEVDSVMSSINPNTSGILLEGFLNIVRKKKEAQRYRNEVRHIFTAFDTYYRGFLTLEDFKKAFRQVAPKLPERTVLEVFREVDRDSDGHVSFRDFEYALNYGQKEA | not soluble
17 | MTCEGRRTMTQPISLGHRMSLIDLYDLRMPQRTGTYVLHEENLAIIETGPSPSVPHLLAGLKALHIDPADIRYIIVTHIHLDHAGGVGVLLEHCPNATVIVHPKGKRHLADPSRLIAGAKAVYGEQFDALFDPIVPVPEERLLVKEDGETLVLSAERTLTFYDTPGHANHHFSIYDSYSGGVFTGDTIGVFYPQLQEAGLAFCLPSTSPNQFNPEAMKQSAERLEKLNPTRIYFGHFGALDQPEEAFRQLRFWLPKFVAAGKEVIARHPEAPAAEQAKAVTKLLHNDITAFLNECSIPASSPVYKVIELDLQVCAMGIIDYWRKQRLEHHHHHH | soluble
18 | MGSDKIHHHHHHMELKILVTGGNVFVPGRLNAHFSTVVYLEHKDRRIIIDPGNLSSMDELEEKFSELGISPDDITDVLFTHVHLDHIFNSVLFENATFYVHEVYKTKNYLSFGTIVGRIYSKVISSWKNVVLLKGEESLFDEKVKVFHTPWHAREHLSFLLDTENAGRVLITGDITPNRLSYYDIIKGYGSVQVKNFLDRVGRIDLLVFPHDAPLKPEVKK | soluble
19 | MGSDKIHHHHHHMVSHKKNDRPRPLWILKIHKRLSLFEFKRYATGIGKDDGQDISWVLKGNAKNNVYQVTVETMENCETDECKKVIWVPDELAESTGTMFEDFKEDQPQESVSSISNNEANWGSSVNELDENYEKMQKEETFDPYDSDSDTSEDSDFDEDFEDSDKTMCSGQS | not soluble
20 | METEEEIQNVNVHHGHNIRRTRIEKNIKQDALAALVNMTQPNVSKYEKMRVIEDEMLNRFARALNVPVEYLKTLEEDAPSVVFENITNNVHDNKDSSMGSTGYNNDSITNTFNPIDKITELYERLLKEKDEKYAALEKRIQGLEQQNNNGK | not soluble
21 | MSLSNLTSQLHNFFSAQLAGVSDEVRVSIRTAPNLLPPCEQPLLSMSNNSRLWGNVNVLARCGNDKRYLQVNVQATGNYVVAAMPIARGGKLEAGNVKLKRGRLDTLPPRTVLDINQLVDAISLRDLSPDQPIQLTQFRQAWRVKAGQRVNVIASGDGFSANAEGQALNNAAVAQNARVRMVSGQVVSGVVDADGNILINLEGHHHHHH | soluble
22 | MGSDKIHHHHHHMATLETLDLSAGFAADLVQATEADAVTGYRRFHLGAFAFQRDEYFVKISWPAKGSTRTHAIPADAFLRAMMRDVAWGFFYGWVNFDHVFGTRNHYGKVDVYAGTFNGILKEAGVDYTETFETPTIMATFKAMLHDWTNEGFDPFAAPEETGTAFGRKHGENGAAIERTRIATRRMPGLEGDSPLRDELPVNRAFRDVGQDEPEVHVKPGFEGELHAFNLFKYLSRSDVTWNPSVTSVCGRSLFCPTTEEFILPVFHGNDRVEWFLQLSDEIVWDIGDKNTGAPRARITMRAGDICAMPADIRHQGYSTKRSMLLVWENATPDLPQRYESGELAPYPIAF | not soluble
